The target of test [1] is E. coli SSB-mixed (E. coli) (UniProt P0AGE0).
Test [2] has as its target E. coli SSB113 (E. coli) (UniProt P0AGE0).
Test [3] has as its target E. coli SSBΔC1 (SSB lacking its C-terminal-most residue) (E. coli) (UniProt P0AGE0).

1 substance from publication PMC2735845 can be followed below.

In turn, “E. coli RecQ (wild type, full-length, hexahistidine-tagged) (from UniProt P15043 1-609) (enzyme)” yielded a Fold stimulation of RecQ helicase activity by SSB-mixed in test [1] of 0.7 fold. The Fold stimulation of RecQ helicase activity by SSB113 in test [2] worked out at 0.9 fold. For the same substance, in test [3], the Fold stimulation of RecQ helicase activity by SSBΔC1 was 0.6 fold.
